Experimental data as given in patent US20190010233A1 (JIANGSU HYAMAB PHARMACEUTICAL, published 2019).

How the values were obtained:
[1] = target: T1, human PD-L1^ECD-hFc protein (human, UniProt Q9NZQ7 19-239, biotinylated in the PD-1 binding ELISA (Table 3) and in the Octet assay (Table 12)); experiment: ELISA, 30 nM mAb
T1 construct: The plain and the biotinylated protein are kept as one molecule; also called PD-L1-hFc; Immunogen A; not shown: human IgG Fc fragment (hFc)
Method: (§1) 100 μL of the diluted recombinant proteins were added to each well of 96-well plate. The plates were sealed with plastic film and incubated at 4° C. overnight. The plates were washed twice with wash buffer (PBS+0.01% (v/v) Tween20), and incubated with blocking buffer (PBS+0.01% (v/v) Tween20+1% (w/w) BSA) at room temperature for 2 hours. The blocking buffer was aspirated away, and 100 μL of purified anti-PD-L1 antibodies were added to each well and incubated for 2 hours at 37° C. The plates were washed three times with wash buffer (PBS+0.01% (v/v) Tween20). HRP-conjugated secondary antibody (Sigma) was added to each well and incubated for 2 hours at 37° C. After the plates were washed three times with wash buffer, 100 μL TMB substrate were added to each well, and the plates were incubated for 30 minutes at room temperature. 100 μL stop solution (0.1N HCl) was added to each well to stop the reaction.

[2] = target: T2, cyno PD-L1^ECD-hFc protein (cyno, UniProt G7PSE7 19-239); experiment: ELISA, 30 nM mAb
T2 construct: also called Cyno Monkey PD-L1^ECD-hFc
T2 sequence (G7PSE7 entry or part of it limits assumed): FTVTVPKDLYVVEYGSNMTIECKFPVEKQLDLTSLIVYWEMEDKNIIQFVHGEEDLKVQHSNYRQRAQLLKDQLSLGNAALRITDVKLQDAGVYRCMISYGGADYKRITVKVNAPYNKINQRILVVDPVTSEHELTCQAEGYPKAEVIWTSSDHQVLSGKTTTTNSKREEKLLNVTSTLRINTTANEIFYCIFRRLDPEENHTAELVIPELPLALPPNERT
Method: as §1

[3] = target: T2, cyno PD-L1^ECD-hFc protein; experiment: ELISA, 0.041 nM mAb
Method: as §1

[4] = target: T3, full length cyno PD-L1 on cells (cyno, UniProt G7PSE7 19-290); experiment: FACS CHO-K1-cPD-L1, 33.33 nM mAb
T3 construct: also called CHO-K1-cPD-L1
T3 sequence (G7PSE7 entry or part of it limits assumed): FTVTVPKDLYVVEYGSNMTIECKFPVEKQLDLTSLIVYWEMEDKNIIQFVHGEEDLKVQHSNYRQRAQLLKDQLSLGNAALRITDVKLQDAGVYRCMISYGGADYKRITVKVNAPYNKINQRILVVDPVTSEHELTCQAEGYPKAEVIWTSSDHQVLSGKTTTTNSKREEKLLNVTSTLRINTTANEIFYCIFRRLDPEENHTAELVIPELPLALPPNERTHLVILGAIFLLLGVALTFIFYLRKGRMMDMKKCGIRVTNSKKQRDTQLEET
Method: (§2) Other CHO-K1 were stably transfected with a pIRES plasmid containing the nucleic acid sequence encoding full length cyno PD-L1 to generate CHO-K1 cells stably expressing cyno PD-L1 (herein referred to as CHO-K1-cPD-L1 cells). […] The culture media was aspirated, and the cells were washed twice with HBSS (Hanks Balanced Salt Solution, Invitrogen). The cells were treated with enzyme-free cell dissociation solution (Versene solution, Invitrogen) and collected. The cells were then washed twice with HBSS, cell counts were determined, and cells were resuspended with HBSS at 2×10⁶ cells/mL. Goat serum was added to the cell suspension to a final concentration of 1%, and the cells were blocked for 30 minutes on ice and then washed twice with HBSS. The cells were collected after centrifugation and resuspended in FACS buffer (HBSS+1% BSA, v/v) at 2×10⁶ cells/mL. 100 μL of the cell suspension were then added to each well of 96-well plate. 100 μL of purified anti-PD-L1 antibodies from Example 2 were added to each well of the 96-well plate and incubated for 2 hours on ice. […] The samples were washed three times with FACS buffer, and 100 μL fixation buffer (4% paraformaldehyde v/v) were added to each well and incubated for 10 minutes. The cells were then washed twice with FACS buffer and resuspended in 100 μL FACS buffer. The mean fluorescence intensity (MFI) was determined using FACS Calibur (BD), and the results are shown in FIGS. 7-8 and in Tables 10-11.

[5] = target: T1, human PD-L1^ECD-hFc protein; experiment: ELISA, 0.370 nM mAb
Method: as §1

[6] = target: T2, cyno PD-L1^ECD-hFc protein; experiment: ELISA, 0.370 nM mAb
Method: as §1

[7] = target: T3, full length cyno PD-L1 on cells; experiment: FACS CHO-K1-cPD-L1, 11.11 nM mAb
Method: as §2

[8] = target: T3, full length cyno PD-L1 on cells; experiment: FACS CHO-K1-cPD-L1, 1.23 nM mAb
Method: as §2

[9] = target: T1, human PD-L1^ECD-hFc protein; experiment: ELISA, 0.001 nM mAb
Method: as §1

[10] = target: T4, full length human PD-L1 on cells (human, UniProt Q9NZQ7 19-290); experiment: FACS CHO-K1-hPD-L1, 10 nM mAb
T4 construct: Also used as the target of the cell-based functional assays (transfected stimulator cells; PD-L1 of the cells in the mixed lymphocyte reaction); also called CHO-K1-hPD-L1; CHOK1-hPD-L1
T4 sequence (Q9NZQ7 19-290 limits assumed): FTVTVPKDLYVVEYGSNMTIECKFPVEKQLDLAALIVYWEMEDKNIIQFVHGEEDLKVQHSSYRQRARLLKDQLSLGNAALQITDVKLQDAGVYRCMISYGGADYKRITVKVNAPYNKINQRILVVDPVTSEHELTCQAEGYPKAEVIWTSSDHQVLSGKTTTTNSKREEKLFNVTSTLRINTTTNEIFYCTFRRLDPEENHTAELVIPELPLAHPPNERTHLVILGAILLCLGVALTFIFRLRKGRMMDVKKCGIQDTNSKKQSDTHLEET
Method: as §2

[11] = target: T4, full length human PD-L1 on cells; experiment: FACS CHO-K1-hPD-L1, 0.1 nM mAb
[12] = target: T4, full length human PD-L1 on cells; experiment: cell-based or functional assay
[13] = target: T1, human PD-L1^ECD-hFc protein; experiment: ELISA, 100 nM mAb
Method: as §1

[14] = target: T1, human PD-L1^ECD-hFc protein; experiment: ELISA, 0.01 nM mAb
Method: as §1

[15] = target: T1, human PD-L1^ECD-hFc protein; experiment: ELISA, 0.0001 nM mAb
Method: as §1

[16] = target: T3, full length cyno PD-L1 on cells; experiment: FACS CHO-K1-cPD-L1, 10 nM mAb
Method: as §2

[17] = target: T4, full length human PD-L1 on cells; experiment: FACS CHO-K1-hPD-L1, 0.0001 nM mAb
Method: as §2

T1 sequence (Q9NZQ7 19-239): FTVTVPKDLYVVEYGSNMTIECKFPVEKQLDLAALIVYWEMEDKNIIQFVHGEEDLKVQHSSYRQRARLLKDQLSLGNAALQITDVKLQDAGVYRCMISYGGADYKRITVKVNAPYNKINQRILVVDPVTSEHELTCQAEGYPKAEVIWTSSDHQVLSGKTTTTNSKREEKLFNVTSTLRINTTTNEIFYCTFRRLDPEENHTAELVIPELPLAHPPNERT

B1: chimeric anti-PD-L1 antibody 105C5D7 (antibody, V domains shown)
VH: EVQLVESGGGLVQPGGSLRLSCAASGFTFSSYWMSWVRQAPGKGLEWVANIKQDGNEKYYVDSVKGRFTISRDNAKNSLYLQMNSLRAEDTAVYYCARNIKWGDAFDIWGQGTMVTVSS
VL: DIQMTQSPSSLSASVGDRVTITCRASQSISSYLNWYQQKPGKAPKLLIYAASSLQSGVPSRFSGSGSGTDFTLTISSLQPEDFAIYSCQQSYSIPLTFGGGTKVEIK
notes: Purified from hybridoma of Harbour H2L2 mice: human variable regions, rat constant regions
OD450 nm [1]: 1.53
OD450 nm [2]: 1.53
OD450 nm [3]: 0.34
Mean fluorescence intensity [4]: 133
OD450 nm [5]: 1.19
OD450 nm [6]: 1.19
Mean fluorescence intensity [7]: 136
Mean fluorescence intensity [8]: 137

B2: chimeric anti-PD-L1 antibody 127D2F3 (antibody, V domains shown)
VH: EVQLVESGGGLVQPGGSLRLSCVASGFTFSSYWMSWVRQAPGKGLEWVANIKQDGSEKYYVDSVKGRLTISRDNAKNSLYLQMKSLRAEDTAVYYCARDPIYSSYFDYWGQGILVTVSS
VL: DIQMTQSPSSLSASVGDRVTITCRASQSISNYLNWYQQKPGKAPKLLIYAASSLQSGVPSRFSGSGSGTDFTLTISSLQPEDFAAYYCQQSYGIPFTFGPGTKVDIK
notes: as for B1
OD450 nm [9]: 0.24
Mean fluorescence intensity [10]: 235
Mean fluorescence intensity [11]: 15.5
IFN-γ (pg/mL), MLR, 0.001 µg/mL mAb [12]: 599 pg/mL
IFN-γ (pg/mL), MLR, 0.01 µg/mL mAb [12]: 1560 pg/mL
IFN-γ (pg/mL), MLR, 0.1 µg/mL mAb [12]: 3010 pg/mL
IFN-γ (pg/mL), MLR, 1 µg/mL mAb [12]: 2840 pg/mL
IFN-γ (pg/mL), MLR, 10 µg/mL mAb [12]: 4840 pg/mL
OD450 nm [13]: 2.63
OD450 nm [14]: 0.38
OD450 nm [15]: 0.2
Mean fluorescence intensity [16]: 105
Mean fluorescence intensity [17]: 4.04

B3: chimeric anti-PD-L1 antibody 73D3G2 (antibody, V domains shown)
VH: EVQLVESGGGLVQPGGSLRLSCAASGFTFNTYWMNWVRQAPGRGLEWVANIKQDGGEKYYVDSVKGRFTISRDNAKNSLYLQMNSLRAEDTAMYYCARDGRSWYPDAFDIWGQGTVVTVSS
VL: DIQMTQSPSTLSASVGDRVTITCRASQSISTWLAWYQQKLGKAPKLLIYEVSILESGVPSRFSGSGSGTEFTLTISSLQPDDFATYYCQQYHSFSSFGGGTRVEIK
notes: as for B1
OD450 nm [1]: 1.81
OD450 nm [2]: 1.81
OD450 nm [3]: 0.36
Mean fluorescence intensity [4]: 137
OD450 nm [5]: 1.29
OD450 nm [6]: 1.29
Mean fluorescence intensity [7]: 136
Mean fluorescence intensity [8]: 116

B4: chimeric anti-PD-L1 antibody 78A11F6 (antibody, V domains shown)
VH: EVQLVESGGGLVQPGGSLRLSCAASGITFSSYWMSWVRQTPGKGLEWVANIKQDGSEKYYVKSVKGRFTISRDNAKNSLYLQMNSLRAEDTAVYYCVRDRAVPGTGAFDIWGQGTMVIVSS
VL: DIQMTQSPSTLSASVGDRVTITCRASQSISNWLAWYQQKPGKAPKLLIYKASSLESGVPSRFSGSGSGTEFTLTISSLQPDDFATYYCQQYDSSLFTFGQGTKLEIK
notes: as for B1
OD450 nm [1]: 1.95
OD450 nm [2]: 2.06
OD450 nm [3]: 0.45
Mean fluorescence intensity [4]: 143
OD450 nm [5]: 1.39
OD450 nm [6]: 1.5
Mean fluorescence intensity [7]: 142
Mean fluorescence intensity [8]: 124

B5: chimeric anti-PD-L1 antibody 73G11B3 (antibody, V domains shown)
VH: EVQLVESGGGLVQPGGSLRLSCVVSGFTFSSYWMSWVRQTPGKGLEWVANIKQDGSEKYYVDSVKGRLTISRDNAKNSLYLQMNSLRAEDTAVYYCVRDRAVPGTGALDIWGQGTMVTVSS
VL: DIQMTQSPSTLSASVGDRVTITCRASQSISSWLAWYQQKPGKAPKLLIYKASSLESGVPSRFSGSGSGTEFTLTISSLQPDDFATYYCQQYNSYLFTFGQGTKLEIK
notes: as for B1
OD450 nm [9]: 0.21
Mean fluorescence intensity [10]: 213
Mean fluorescence intensity [11]: 17.2
IFN-γ (pg/mL), MLR, 0.001 µg/mL mAb [12]: 1520 pg/mL
IFN-γ (pg/mL), MLR, 0.01 µg/mL mAb [12]: 3750 pg/mL
IFN-γ (pg/mL), MLR, 0.1 µg/mL mAb [12]: 5740 pg/mL
IFN-γ (pg/mL), MLR, 1 µg/mL mAb [12]: 6480 pg/mL
IFN-γ (pg/mL), MLR, 10 µg/mL mAb [12]: 6950 pg/mL
OD450 nm [13]: 2.69
OD450 nm [14]: 0.28
OD450 nm [15]: 0.2
Mean fluorescence intensity [16]: 99.2
Mean fluorescence intensity [17]: 1.87

B6: chimeric anti-PD-L1 antibody 192D9E7 (antibody, V domains shown)
VH: EVQLVESGGGLVQPGGSLRLSCAASGFTFSSYWMSWVRQAPGKGLEWVADIKQDGSEKYYVDSVKGRFTISRDNAKNSLYLQMNSLRAEDTAVYYCTRDKPHWGGVMDAWGQGTSVTVSS
VL: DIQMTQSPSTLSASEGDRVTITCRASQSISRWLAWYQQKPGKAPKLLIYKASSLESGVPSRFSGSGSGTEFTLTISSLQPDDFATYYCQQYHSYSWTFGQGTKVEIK
notes: as for B1
OD450 nm [9]: 0.25
Mean fluorescence intensity [10]: 134
Mean fluorescence intensity [11]: 23.5
IFN-γ (pg/mL), MLR, 0.001 µg/mL mAb [12]: 221 pg/mL
IFN-γ (pg/mL), MLR, 0.01 µg/mL mAb [12]: 2000 pg/mL
IFN-γ (pg/mL), MLR, 0.1 µg/mL mAb [12]: 3120 pg/mL
IFN-γ (pg/mL), MLR, 1 µg/mL mAb [12]: 3300 pg/mL
IFN-γ (pg/mL), MLR, 10 µg/mL mAb [12]: 4080 pg/mL
OD450 nm [13]: 2.7
OD450 nm [14]: 0.4
OD450 nm [15]: 0.21
Mean fluorescence intensity [16]: 82.3
Mean fluorescence intensity [17]: 3.58
